According to US11111295:

Biological target: human claudin 18A2 (CLD18A2) (human)
Experiment: cell-based or functional assay

human claudin 18A2 (CLD18A2) (human), sequence (chain, as listed by the source limits assumed, form in doubt): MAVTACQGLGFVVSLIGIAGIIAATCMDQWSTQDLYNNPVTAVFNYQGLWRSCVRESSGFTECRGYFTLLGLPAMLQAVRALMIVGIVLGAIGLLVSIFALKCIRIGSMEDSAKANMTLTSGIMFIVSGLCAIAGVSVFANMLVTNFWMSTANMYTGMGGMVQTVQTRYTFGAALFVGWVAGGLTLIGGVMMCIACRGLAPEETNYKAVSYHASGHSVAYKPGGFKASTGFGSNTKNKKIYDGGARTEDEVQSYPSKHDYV

Substance: hu8E5-28Z chimeric antigen receptor
- CAR-T cytotoxicity on AGS-A2 cells, effector-to-target ratio 3:1: > 60%
- CAR-T cytotoxicity on BGC-823-A2 cells, effector-to-target ratio 3:1: > 90%
